No end group written: not given here. *: point of attachment. maleimido‑mono‑amide‑DOTA = O=C(O)CN1CCN(CC(=O)O)CCN(CC(=O)NCCN2C(=O)CC(*)C2=O)CCN(CC(=O)O)CC1; NAM = N-norbiotinyl-β-maleimidopropionylamide, biotin derivative conjugated to Cys thiol
Legend:
[1] = biological target: T1, VCAM-1 expressed on HUVEC (Homo sapiens, UniProt P19320); test: In vitro test of 68Ga-MacroP on HUVEC (LigandTracer radioactive uptake); format: cell-based; parameters: endogenous in cells; host or cells: primary HUVEC stimulated with 10 ng/mL TNF-alpha for 4 h; conditions: HUVEC activated with 10 ng/mL TNF-α for 4 h vs unstimulated HUVEC; 5 MBq 68Ga-MacroP in 3 mL saline; LigandTracer White
T1 sequence (P19320 25-739): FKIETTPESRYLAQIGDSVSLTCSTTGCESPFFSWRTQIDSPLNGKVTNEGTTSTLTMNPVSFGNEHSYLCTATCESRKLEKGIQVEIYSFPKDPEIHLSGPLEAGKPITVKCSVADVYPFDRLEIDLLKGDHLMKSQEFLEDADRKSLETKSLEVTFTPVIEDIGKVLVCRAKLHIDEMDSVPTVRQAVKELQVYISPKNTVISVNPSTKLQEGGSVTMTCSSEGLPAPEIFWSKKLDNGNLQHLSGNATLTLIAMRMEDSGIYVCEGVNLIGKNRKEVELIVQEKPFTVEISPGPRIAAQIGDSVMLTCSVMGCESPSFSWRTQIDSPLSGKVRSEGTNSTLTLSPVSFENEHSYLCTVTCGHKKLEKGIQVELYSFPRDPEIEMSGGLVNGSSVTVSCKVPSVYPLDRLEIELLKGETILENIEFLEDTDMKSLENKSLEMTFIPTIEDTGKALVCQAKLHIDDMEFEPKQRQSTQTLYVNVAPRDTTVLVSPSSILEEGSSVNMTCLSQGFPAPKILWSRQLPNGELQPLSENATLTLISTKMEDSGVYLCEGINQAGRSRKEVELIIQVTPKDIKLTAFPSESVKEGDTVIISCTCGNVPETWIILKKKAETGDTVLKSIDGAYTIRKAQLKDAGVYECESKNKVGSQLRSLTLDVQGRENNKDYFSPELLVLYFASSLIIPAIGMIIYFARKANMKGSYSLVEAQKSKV
Excerpt: (§1) Human Umbilical Vein Endothelial Cells (HUVEC) were obtained from human umbilical cords collected from full-term women immediately after cesarean section at the Gynecology and Obstetrics Department of International Evangelical Hospital in Genoa (Italy), after patients’ informed consent and the approval (register number 2/2010-19, February, 2010) by the Institutional Ethical Committee. Each cord vein was individually processed for obtaining endothelial cells through mechanical dissociation of the tissue and collagenase digestion. Cells were maintained in culture medium EndoGRO-LS Complete Culture Media Kit seeded on attachment factor-coated plates. For labeling experiments, 8 × 10^5 cells were plated on Petri dishes in EndoGRO Basal Medium (SCME-BM) and allowed to attach overnight prior stimulation with 10 ng/mL of TNF-alpha (TNF-α) for 4 h. Cells without TNF-α treatment were used as control (Figures S19 and S20).
The binding assay of ^68Ga-MacroP with VCAM-1 expressed on HUVEC was monitored using LigandTracer® White (Ridgeview Instruments AB, Uppsala, Sweden) according to our previously validated procedure. Briefly, the tool consists of a beta-emission detector and a rotating platform harboring a standard Petri dish. […] The binding of radioactivity to cell-containing areas and reference areas was recorded. […]

[2] = biological target: avidin (Gallus gallus, UniProt P02701); test: NAMP-avidin binding (ultrafiltration, RP-HPLC, capillary electrophoresis); conditions: approx. 0.17 mM NAMP with avidin 2.5 μg/μL, 37 °C, 2 h; 30 kD cut-off ultrafiltration; RP-HPLC of ultrafiltrate, capillary electrophoresis of retentate
Procedure: Avidin was dissolved in ultrapure water (2.5 μg/μL). This solution (100 μL) was mixed with a NAMP solution (approx. 0.17 mM) and heated at 37 °C under 400 rpm orbital shaking for 2 h. The mixture was placed in an ultrafiltration system with a regenerated cellulose membrane (30 kD cut-off), and washed with 250 μL of ultrapure water at 1400 g for 20 min at 15 °C. By inverted spinning at 1000 g for 3 min, the retentate was recovered and analyzed by capillary electrophoresis (Agilent Technologies 7100 Capillary Electrophoresis, Santa Clara, CA, USA). Separations were performed in a bare fused-silica capillary 50 μm (i.d.) × 64.5 cm (L) × 50 cm (L), activated with 1 M aqueous NaOH, 0.1 M aqueous NaOH and washed with ultrapure water. The conditioning and the run were carried out with 50 mM sodium phosphate buffer (pH 2.5), used also for 120 s preconditioning before injection. The gradient voltage was from 0 to 30 kV in 0.2 min.

[3] = biological target: T1, VCAM-1 expressed on HUVEC; test: In vitro test of NAMP-avidin-68Ga-BisDOTA on HUVEC (three-step pretargeting, LigandTracer); format: cell-based; parameters: endogenous in cells; host or cells: primary HUVEC stimulated with TNF-alpha
Excerpt: as §1, with “Cells without TNF-α treatment were used as control (Figures S19 and S20).” left out
After removing the culture medium containing TNF-α, stimulated HUVEC were incubated at 37 °C with 4 nmol of NAMP for 20 min and afterwards with 3.5 nmol of NeutrAvidin™ for 10 min. After washing and replacing the culture medium with 3 mL of the saline solution containing 5MBq of ^68Ga-BisDOTA (specific activity 37.0 MBq/nmol), the binding assay of ^68Ga-BisDOTA with the NAMP-avidin complex, bound to the VCAM-1 expressed on HUVEC, was monitored using the same procedure described in Section 2.3.5.

[4] = deglycosylated form of avidin; cited from earlier work
Procedure: After radiolabeling with ^68Ga, both MacroP and NAMP were tested on human endothelial cells. Quantitative PCR and Fluorescence-Activated Cell Sorting (FACS) analysis were performed prior to the experiments, to assess the expression of VCAM-1 on HUVEC. To avoid excessive stress for the cells, they were activated with TNF-α for 4 h only. In the three-step pretargeting test, a commercially available deglycosylated form of avidin (NeutrAvidin™) was employed because it is characterized by reduced non-specific binding, low isoelectric point (~6.3) and low production cost with respect to ...

Chain of avidin (P02701 25-152, species assumed): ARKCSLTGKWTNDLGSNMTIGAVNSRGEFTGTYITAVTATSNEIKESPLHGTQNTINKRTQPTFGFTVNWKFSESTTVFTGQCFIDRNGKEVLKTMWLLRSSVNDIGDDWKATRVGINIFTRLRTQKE

In the case of “MacroP: reaction product of maleimido-mono-amide-DOTA with the cysteine thiol of the VCAM-1-binding peptide VHPKQHRGGSKGC (VHPKQHRGGSKGC(maleimido‑mono‑amide‑DOTA))”, the “radiosignal uptake of activated cells compared to control cells” value [1] is reported as 4 fold.
In the case of “NAMP: biotin derivative: NAM (N-norbiotinyl-β-maleimidopropionylamide) conjugated to the cysteine thiol of VHPKQHRGGSKGC, for three-step pretargeting (VHPKQHRGGSKGC(NAM))”, the “avidin binding: unbound NAMP in the ultrafiltrate” value [2] is reported as “no unbound NAMP could be detected”, the “radioactive uptake of activated cells compared to the controls” value ([3]; HUVEC activated with 10 ng/mL TNF-α for 4 h vs unstimulated, 4 nmol NAMP 20 min at 37 °C, 3.5 nmol NeutrAvidin 10 min, then 5 MBq 68Ga-BisDOTA in 3 mL saline) is reported as 12 fold and the “uptake of radioactivity, activated cells versus control cells (in words)” value ([3]; TNF-α activated HUVEC vs control, NAMP, then NeutrAvidin and 68Ga-BisDOTA, p < 0.05) is reported as “evidently higher uptake of radioactivity compared to the control cells”.
For “NeutrAvidin™: commercially available deglycosylated form of avidin”, the isoelectric point [4] is given as ~ 6.3.

Reference: publication PMC8309178, “Two Novel PET Radiopharmaceuticals for Endothelial Vascular Cell Adhesion Molecule-1 (VCAM-1) Targeting” (Pharmaceutics, 2021)
